We go through 14 substances from PMC7078472.

What all share (experiment): MYTH (membrane yeast two-hybrid) quantitative β-Gal activity assay
Assay [1] deals with TbATPc prey for MYTH (T. brucei ATP synthase subunit c without MTS, NubG-HA; identical to TcATPc). The settings on record: yeast strain NMY51, n = 3, 6 colonies for each independent experiment, read off a plot.
Assay [2] deals with TbMCU bait for MYTH (without MTS, SUC signal sequence, Cub-LexA-VP16). The settings on record: yeast strain NMY51; n = 3; 6 colonies for each independent experiment; parent: est. 140; read off a plot.
Assay [3] has as its target TbMCUc bait for MYTH (Cub-LexA-VP16). The settings on record: yeast strain NMY51; n = 3; 6 colonies for each independent experiment; parent: est. 140; read off a plot.
Assay [4] addresses TbMCUd bait for MYTH (Cub-LexA-VP16). The settings on record: yeast strain NMY51; n = 3; 6 colonies for each independent experiment; parent: est. 180; read off a plot.
Assay [5] has as its target TbMCU bait for MYTH (without MTS, SUC signal sequence, Cub-LexA-VP16). The settings on record: yeast strain NMY51; n = 3; 6 colonies for each independent experiment; parent: est. 140; read off a plot. This is another data set of the same source.
Assay [6] concerns the target T. cruzi MCU (TcMCU) bait for MYTH (Cub-LexA-VP16). The settings on record: yeast strain NMY51; n = 3; 6 colonies for each independent experiment; parent: est. 180; read off a plot.
Assay [7] has as its target TbATPc prey for MYTH (T. brucei ATP synthase subunit c without MTS, NubG-HA; identical to TcATPc). The settings on record: yeast strain NMY51; n = 3; 6 colonies for each independent experiment; parent: est. 150; read off a plot.

“T. cruzi MCU (TcMCU) bait for MYTH (Cub-LexA-VP16)”: the response in assay [1] (parent: est. 180) stood at 32 units.
On the same count and under the same terms, in the case of “T. cruzi MCU (TcMCU) bait for MYTH (Cub-LexA-VP16) Q208A; I211P; I212P; F217A” it was 34 units.
Take “TbATPc prey for MYTH (T. brucei ATP synthase subunit c without MTS, NubG-HA; identical to TcATPc) F98L; E102A; F107L; F113L”: the response in assay [2] worked out at 88 units.
“TbATPc prey for MYTH (T. brucei ATP synthase subunit c without MTS, NubG-HA; identical to TcATPc) F98L; F107L; F113L”: the response in assay [2] was found to be 130 units.
Still for that read-out and setting: then “TbATPc prey for MYTH (T. brucei ATP synthase subunit c without MTS, NubG-HA; identical to TcATPc) G64A; G66A; G68A; G70A”, with 69 units.
For “TbATPc prey for MYTH (T. brucei ATP synthase subunit c without MTS, NubG-HA; identical to TcATPc) G64L; G66L; G68L; G70L”, the response in assay [3] was found to be 43 units; in assay [4] it was 58 units; in assay [5], 44 units; in assay [6], 58 units; in assay [2], 45 units.
With “TbMCU bait for MYTH (without MTS, SUC signal sequence, Cub-LexA-VP16)”, the response in assay [1] (parent: est. 140) came to 26 units.
Regarding “TbMCU bait for MYTH (without MTS, SUC signal sequence, Cub-LexA-VP16) Q213A; V216P; I217P; F222A”, the response worked out at 28 units in assay [1] (parent: est. 140) and 27 units in assay [7].
Regarding “TbMCU bait for MYTH (without MTS, SUC signal sequence, Cub-LexA-VP16) V216P; I217P”, the response in assay [7] amounted to 34 units.
Take “TbMCU bait for MYTH (without MTS, SUC signal sequence, Cub-LexA-VP16) Y235A; F236A; T241E; Y248A”: in assay [7], the response worked out at 120 units.
For the substance TbMCUc bait for MYTH (Cub-LexA-VP16), the response in assay [1] (parent: est. 140) was determined as 29 units.
Still for that read-out and setting: then “TbMCUc bait for MYTH (Cub-LexA-VP16) Q161A; V164P; L165P; F170A”, with 30 units.
As to TbMCUd bait for MYTH (Cub-LexA-VP16), the response in assay [1] (parent: est. 180) was 27 units.
On the same count and under the same terms, in the case of “TbMCUd bait for MYTH (Cub-LexA-VP16) R123A; V126P; L127P; Y132A” it was 34 units.
